Laboratory results reported in PMC3103650 (Chemico-biological interactions, 2011).

Target: the molecule itself
Assay: SEC

B1: C-terminal domain of mtFDH (ALDH1L2), residues 413-923 (domain or fragment, human, UniProt Q3SY69 413-923, looked up)
chain: VRKLRGEDQEVELVVDYISKEVNEIMVKMPYQCFINGQFTDADDGKTYDTINPTDGSTICKVSYASLADVDKAVAAAKDAFENGEWGRMNARERGRLMYRLADLLEENQEELATIEALDSGAVYTLALKTHIGMSVQTFRYFAGWCDKIQGSTIPINQARPNRNLTFTKKEPLGVCAIIIPWNYPLMMLAWKSAACLAAGNTLVLKPAQVTPLTALKFAELSVKAGFPKGVINIIPGSGGIAGQRLSEHPDIRKLGFTGSTPIGKQIMKSCAVSNLKKVSLELGGKSPLIIFNDCELDKAVRMGMGAVFFNKGENCIAAGRLFVEESIHDEFVTRVVEEIKKMKIGDPLDRSTDHGPQNHKAHLEKLLQYCETGVKEGATLVYGGRQVQRPGFFMEPTVFTDVEDYMYLAKEESFGPIMVISKFQNGDIDGVLQRANSTEYGLASGVFTRDINKAMYVSEKLEAGTVFINTYNKTDVAAPFGGVKQSGFGKDLGEEALNEYLKTKTVTLEY
  stoichiometry N: 4
